This is an account of results in article PMC3010111.

What all share (experiment): purified protein
Substrate in data set [1]: C[C@@H](O)[C@H](N)C(=O)O
Conditions: 0.1 M Tris–HCl pH 8.0, 25°C, 1.25 μM LtaE.

Substrate in data set [2]: C[C@H](O)[C@H](N)C(=O)O
Conditions: 0.1 M Tris–HCl pH 8.0, 25°C, 62.5 nM LtaE.

Substrate in data set [3]: N[C@H](C(=O)O)[C@H](O)CO
Substrate in data set [4]: O=C(O)C(=O)COP(=O)(O)O
Conditions: 50 mM Tris–HCl pH 7.4, 37°C, MalE–YeaB 5.7 μM.

Substrate in data set [5]: O=C(O)[C@H](O)[C@H](O)COP(=O)(O)O
Conditions: 2 mM NAD+, 100 mM Tris–HCl pH 7.5, 25°C, 2 μM PdxA.

Substrate in data set [6]: N[C@@H](CCO)C(=O)O
Conditions: 25°C, 37 nM ThrB.

The mark [7] stands for this setting: 0.1 M Tris–HCl pH 8.0, 25°C, 1 μM LtaE.

B1: LtaE (low-specificity threonine aldolase) (Escherichia coli K-12) (protein)
chain: MIDLRSDTVTRPSRAMLEAMMAAPVGDDVYGDDPTVNALQDYAAELSGKEAAIFLPTGTQANLVALLSHCERGEEYIVGQAAHNYLFEAGGAAVLGSIQPQPIDAAADGTLPLDKVAMKIKPDDIHFARTKLLSLENTHNGKVLPREYLKEAWEFTRERNLALHVDGARIFNAVVAYGCELKEITQYCDSFTICLSKGLGTPVGSLLVGNRDYIKRAIRWRKMTGGGMRQSGILAAAGIYALKNNVARLQEDHDNAAWMAEQLREAGADVMRQDTNMLFVRVGEENAAALGEYMKARNVLINASPIVRLVTHLDVSREQLAEVAAHWRAFLAR
As to B1, in “purified protein [1]”, the Km was determined as 4000 ± 200 µM, the kcat is 1.1 ± 0.1 s⁻¹ and the kcat/Km was found to be 280 ± 20 M⁻¹ s⁻¹. Moreover, in “purified protein [2]”, the Km came out at 52 ± 4 µM, the kcat is 3.2 ± 0.2 s⁻¹ and the kcat/Km worked out at 62000 ± 5000 M⁻¹ s⁻¹. Besides, in the data set “purified protein [3]” (setting [7]), the Km turned out to be 27 ± 2 µM, the kcat worked out at 1.44 ± 0.03 s⁻¹ and the kcat/Km was determined as 53000 ± 4000 M⁻¹ s⁻¹.

B2: MalE–YeaB (YeaB, also known as NudL) (Escherichia coli K-12) (protein)
chain: MEYRSLTLDDFLSRFQLLRPQINRETLNHRQAAVLIPIVRRPQPGLLLTQRSIHLRKHAGQVAFPGGAVDDTDASAIAAALREAEEEVAIPPSAVEVIGVLPPVDSVTGYQVTPVVGIIPPDLPYRASEDEVSAVFEMPLAQALHLGRYHPLDIYRRGDSHRVWLSWYEQYFVWGMTAGIIRELALQIGVKP
As to B2, in “purified protein [4]”, the kcat was found to be 5.7e-05 ± 7e-06 s⁻¹ and the kcat/Km was over 0.028 M⁻¹ s⁻¹.

B3: PdxA (4-hydroxy-L-threonine dehydrogenase) (Escherichia coli K-12) (protein)
chain: MVKTQRVVITPGEPAGIGPDLVVQLAQREWPVELVVCADATLLTNRAAMLGLPLTLRPYSPNSPAQPQTAGTLTLLPVALRAPVTAGQLAVENGHYVVETLARACDGCLNGEFAALITGPVHKGVINDAGIPFTGHTEFFEERSQAKKVVMMLATEELRVALATTHLPLRDIADAITPALLHEVIAILHHDLRTKFGIAEPRILVCGLNPHAGEGGHMGTEEIDTIIPVLNELRAQGMKLNGPLPADTLFQPKYLDNADAVLAMYHDQGLPVLKYQGFGRGVNITLGLPFIRTSVDHGTALELAGRGKADVGSFITALNLAIKMIVNTQ
For the protein B3, in “purified protein [5]”, the Km is 150 ± 13 µM and the kcat was 0.020 ± 0.002 s⁻¹.

B4: ThrB (homoserine kinase) (Escherichia coli K-12) (protein)
chain: MVKVYAPASSANMSVGFDVLGAAVTPVDGALLGDVVTVEAAETFSLNNLGRFADKLPSEPRENIVYQCWERFCQELGKQIPVAMTLEKNMPIGSGLGSSACSVVAALMAMNEHCGKPLNDTRLLALMGELEGRISGSIHYDNVAPCFLGGMQLMIEENDIISQQVPGFDEWLWVLAYPGIKVSTAEARAILPAQYRRQDCIAHGRHLAGFIHACYSRQPELAAKLMKDVIAEPYRERLLPGFRQARQAVAEIGAVASGISGSGPTLFALCDKPETAQRVADWLGKNYLQNQEGFVHICRLDTAGARVLEN
As to B4, in “purified protein [6]”, the Km stood at 120 ± 20 µM, the kcat was 46 ± 4 s⁻¹ and the kcat/Km was 380000 ± 70000 M⁻¹ s⁻¹. In addition, in “purified protein [3]” (25°C, 0.18 μM ThrB), the Km was determined as 2000 ± 100 µM, the kcat amounted to 9.7 ± 0.8 s⁻¹ and the kcat/Km came to 4800 ± 600 M⁻¹ s⁻¹.

Broadly, the Km is the concentration of substrate that gives half-maximal velocity. The term kcat denotes the maximal rate divided by the concentration of active sites. In general, kcat/Km refers to the turnover number divided by the Michaelis constant.
